# PMC9676460, “Dynamic acylome reveals metabolite driven modifications in Syntrophomonas wolfei” (Frontiers in Microbiology, 2022)
# Where “and” joins values, the source holds several entries; their conditions need not be identical. Identical values can stand only once.
# B1: Syntrophomonas wolfei Göttingen Act2 (Swol_0675), acetyl-CoA acetyltransferase (enzyme)
# chain: MAEINEVVVVGMARTPIGRYLGGLASVRANDLAIIAANAAIERAGVDPGIIDEIVGATCLHAGNGSLPPRIIGMKVGLPVRSGSCMVSQNCASGMRATEIACQNIMLGKTDISLVTAVESMSNIPYLLQQARSGYRMGDGKVQDAMLSDGLVCQLAGGHMGMTAENIAEKYGITREECDALALTSHQNAVKAVDEGIFDREIVPVVIKSKKGDKVISKDEHPIRGASLETMAKLPPAFKKGGVVTAANASGINDCAAAAVFMSKKKCEELGLKPLMKLVGICSEGVDAKVMGLGPAVAMPKVLKQAGWKYEDVDYWEVNEAFAAQVLGVVRMLKEEAGIELDFSKTNHNGSGIGLGHPVGATGLRIIVSMYYELERLGLTKGGASLCVGGGSAMASLWTRDI
# notes: Act2, acetyl-CoA acetyltransferase encoded by the gene Swol_0675 of Syntrophomonas wolfei subsp. wolfei strain Göttingen; synthesized gene cloned into pMAPLe4; The asymmetric unit holds a homodimer; also called acetyl-CoA transferase; acyl-CoA transferase paralog; source: E. coli BL21-Gold (DE3), purified (NiNTA, TEV cleavage, Superdex 200 SEC); not shown: His6, N-terminal, cleaved
# Target: the molecule itself
# Assay: crystal structure; Act2 alone; hanging drop, 0.1 M sodium formate pH 7.0, 12% PEG 3,350, room temperature; space group P 41 21 2; two molecules in the asymmetric unit; tetramer from crystal packing
protein,measurement,value
B1,stoichiometry N,2 and 4
